Positions count from the first letter of the chain named. In names and notes the source's numbering stands.
B1: D175G (protein)
chain: MQLRNPELHLGCALALRFLALVSWDIPGARALDNGLARTPTMGWLHWERFMCNLDCQEEPDSCISEKLFMEMAELMVSEGWKDAGYEYLCIDDCWMAPQRDSEGRLQADPQRFPHGIRQLANYVHSKGLKLGIYADVGNKTCAGFPGSFGYYDIDAQTFADWGVDLLKFDGCYCGSLENLADGYKHMSLALNRTGRSIVYSCEWPLYMWPFQKPNYTEIRQYCNHWRNFADIDDSWKSIKSILDWTSFNQERIVDVAGPGGWNDPDMLVIGNFGLSWNQQVTQMALWAIMAAPLFMSNDLRHISPQAKALLQDKDVIAINQDPLGKQGYQLRQGDNFEVWERPLSGLAWAVAMINRQEIGGPRSYTIAVASLGKGVACNPACFITQLLPVKRKLGFYEWTSRLRSHINPTGTVLLQLENTMQMSLKDLL
B2: D175H (protein)
chain: B1 chain with G175H
B3: D175V (protein)
chain: B1 chain with G175V
B4: D175Y (protein)
chain: B1 chain with G175Y
B5: S176C (protein)
chain: B1 chain with G175D, S176C
B6: S176R (protein)
chain: B1 chain with G175D, S176R
B7: L177F (protein)
chain: B1 chain with G175D, L177F
B8: L177M (protein)
chain: B1 chain with G175D, L177M
B9: L177S (protein)
chain: B1 chain with G175D, L177S
B10: L177V (protein)
chain: B1 chain with G175D, L177V
B11: L177W (protein)
chain: B1 chain with G175D, L177W

System: mutant form of α-Gal A expressed in HEK-293 cells
Test: HEK assay (GLP HEK / Migalastat Amenability Assay): α-Gal A activity in lysates of transiently transfected HEK-293 cells incubated with or without 10 μM migalastat
Assay type: cell-based, human
Details: 10 μM migalastat versus baseline
Outline: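 HEK-293 cells transiently transfected with mutant α-Gal A and incubated with or without 10 μM migalastat; lysate activity given as nmol free 4-MU released per mg protein per hour. Values are mean±SEM.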

Row | Molecule | Absolute increase (% WT)
1 | B1 | 18.1 % WT
2 | B2 | 26.4 % WT
3 | B3 | 19.7 % WT
4 | B4 | 22.9 % WT
5 | B5 | 16.2 % WT
6 | B6 | 22.0 % WT
7 | B7 | 38.7 % WT
8 | B8 | 27.9 % WT
9 | B9 | 35.9 % WT
10 | B10 | 22.9 % WT
11 | B11 | 37.6 % WT

Same assay, conditions: 10 μM migalastat α-Gal A activity relative to baseline

Row | Molecule | Relative increase
12 | B1 | 1.2
13 | B2 | 1.4
14 | B3 | 1.6
15 | B4 | 1.8
16 | B5 | 1.2
17 | B6 | 1.3
18 | B7 | 1.9
19 | B8 | 1.4
20 | B9 | 1.7
21 | B10 | 1.3
22 | B11 | 1.7

Same assay, conditions: 10 μM migalastat, 5 days; percentage of baseline wild-type α-Gal A activity; mean ± SEM

Row | Molecule | 10 μM migalastat α-Gal A activity (% WT)
23 | B1 | 92.8 ± 6.2 % WT
24 | B2 | 87.1 ± 3.9 % WT
25 | B3 | 53.5 ± 2.5 % WT
26 | B4 | 52.3 ± 1.9 % WT
27 | B5 | 79.5 ± 5.1 % WT
28 | B6 | 88.3 ± 3.3 % WT
29 | B7 | 84 ± 2.3 % WT
30 | B8 | 97.4 ± 2.7 % WT
31 | B9 | 87.2 ± 4.5 % WT
32 | B10 | 91.8 ± 2.8 % WT
33 | B11 | 88.2 ± 2 % WT

Same assay, conditions: absence of migalastat; percentage of baseline wild-type α-Gal A activity; mean ± SEM

Row | Molecule | Baseline α-Gal A activity (% WT)
34 | B1 | 74.7 ± 6.7 % WT
35 | B2 | 60.7 ± 3.4 % WT
36 | B3 | 33.7 ± 2.2 % WT
37 | B4 | 29.4 ± 2.4 % WT
38 | B5 | 63.3 ± 3.9 % WT
39 | B6 | 66.3 ± 2 % WT
40 | B7 | 45.3 ± 2.1 % WT
41 | B8 | 69.5 ± 2.3 % WT
42 | B9 | 51.4 ± 1.7 % WT
43 | B10 | 68.9 ± 3.2 % WT
44 | B11 | 50.5 ± 2.6 % WT

Same assay, conditions: lysates of HEK-293 cells transfected with the mutant form, incubated 5 days in the absence of migalastat; mean ± SEM

Row | Molecule | Baseline α-Gal A activity
45 | B1 | 23065 ± 2315 nmol/mg/h
46 | B2 | 18529 ± 1174 nmol/mg/h
47 | B3 | 10430 ± 915 nmol/mg/h
48 | B4 | 8991 ± 838 nmol/mg/h
49 | B5 | 20097 ± 1126 nmol/mg/h
50 | B6 | 22675 ± 886 nmol/mg/h
51 | B7 | 15605 ± 911 nmol/mg/h
52 | B8 | 23730 ± 946 nmol/mg/h
53 | B9 | 17445 ± 533 nmol/mg/h
54 | B10 | 23616 ± 1282 nmol/mg/h
55 | B11 | 17321 ± 1025 nmol/mg/h

Same assay, conditions: lysates of HEK-293 cells transfected with the mutant form, incubated 5 days with 10 μM migalastat; mean ± SEM

Row | Molecule | 10 μM migalastat α-Gal A activity
56 | B1 | 28273 ± 1968 nmol/mg/h
57 | B2 | 26201 ± 994 nmol/mg/h
58 | B3 | 16384 ± 1039 nmol/mg/h
59 | B4 | 15923 ± 778 nmol/mg/h
60 | B5 | 24777 ± 960 nmol/mg/h
61 | B6 | 30159 ± 1226 nmol/mg/h
62 | B7 | 28893 ± 1210 nmol/mg/h
63 | B8 | 33080 ± 829 nmol/mg/h
64 | B9 | 29868 ± 1909 nmol/mg/h
65 | B10 | 31347 ± 1132 nmol/mg/h
66 | B11 | 30075 ± 867 nmol/mg/h

Reference: patent publication US11833164B2, “Methods of treating Fabry disease in patients having a mutation in the GLA gene” (Amicus Therapeutics, Inc., priority 2019, dated 2023)
